In the series the target is T1, dADAR dsRBD1 (UniProt Q9NII1 48-140).
T1 sequence: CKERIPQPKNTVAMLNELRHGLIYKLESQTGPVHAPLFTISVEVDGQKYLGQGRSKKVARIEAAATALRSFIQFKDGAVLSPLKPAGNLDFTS
The series can be described thus: ITC. In general terms: Isothermal titration calorimetry measures the heat released or taken up as one component is titrated into another.

As to GGUAGUAUAACAAUAUCCGUGUUGUUAUAGUACC (structured_RNA) [GluR-2 R/G upper stem-loop (GluR-2 USL) with GluR-3 tetraloop], the Kd is 400 ± 50 nM.

A word on the Kd: it is the equilibrium constant for the complex coming apart. Low values mean higher affinity, high ones lower affinity.

These data come from publication PMC3539133.
